Reference: patent US20220267464A1

Target: human CEACAM5 (carcinoembryonic antigen, CEA) on cells (human) (UniProt P06731)
Test: flow cytometry, MKN45 cells
Parameters: unit not given beside the values

Sequence of human CEACAM5 (carcinoembryonic antigen, CEA) on cells (human) (P06731 35-685 E398K limits assumed): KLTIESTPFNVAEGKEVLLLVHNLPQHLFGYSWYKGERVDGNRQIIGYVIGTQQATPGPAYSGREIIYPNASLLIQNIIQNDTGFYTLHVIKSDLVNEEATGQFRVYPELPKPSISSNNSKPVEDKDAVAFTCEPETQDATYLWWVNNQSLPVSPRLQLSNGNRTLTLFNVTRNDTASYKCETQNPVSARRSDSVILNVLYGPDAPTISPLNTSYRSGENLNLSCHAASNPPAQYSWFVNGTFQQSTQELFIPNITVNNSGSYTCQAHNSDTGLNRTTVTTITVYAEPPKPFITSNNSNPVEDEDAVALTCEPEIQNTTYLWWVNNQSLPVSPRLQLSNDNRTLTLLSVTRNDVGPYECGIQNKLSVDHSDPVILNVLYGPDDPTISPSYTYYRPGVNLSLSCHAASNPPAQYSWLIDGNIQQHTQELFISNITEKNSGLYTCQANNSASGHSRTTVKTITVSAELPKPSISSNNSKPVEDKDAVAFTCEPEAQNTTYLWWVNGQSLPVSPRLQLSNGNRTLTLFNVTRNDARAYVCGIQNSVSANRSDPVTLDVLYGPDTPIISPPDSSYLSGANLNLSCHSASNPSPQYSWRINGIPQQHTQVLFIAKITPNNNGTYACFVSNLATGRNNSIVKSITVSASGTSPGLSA

AUC: 3140
B1: P1AE3125 (antibody, IgG1, V domains shown)
VH: QVQLVQSGAEVKKPGASVKVSCKASGFNIKDSYMHWVRQAPGQGLEWMGWIDPENGDTEYAPKFQGRVTMTTDTSISTAYMELSRLRSDDTAVYYCNEGTPTGPYYFDYWGQGTLVTVSS
VL: DIQMTQSPSSLSASVGDRVTITCRASSSVSYMHWYQQKPGKAPKLLIYSTSNLASGVPSRFSGSGSGTDFTLTISSLQPEDFATYYCQQRSSYPLTFGGGTKLEIK
